Laboratory results as given in CN115093478A.

Molecular target: 天然CHIKV-E2蛋白 (Chikungunya virus (Ross株))

B1: 2A2-E10(HRP) (antibody, V domains shown)
VH: EVQLVESGGGLVQPKGSLKLSCAASGFTHNTYNMNWVRQAPGKGLEWVARIRSGSNMYATYYADSVKDRFTISRDDSQSILYLQMNNLKTEDTVMYYCERPDYSGSSYFDYWGQGTTLTVSS
VL: DIQLTQPPSYLAASPGETITINCRASKSYSKYCLAWYQEKPGKTNKLLIYSGSTLQSGIPSRFSGSGSGTDFTLTISSLEPEDFAMYYCQQGNMYPYTFGGGTKLEIK
- DAS-ELISA检测灵敏度: 1e+06 PFU/mL
